From IntAct's records for PubMed 26859457

Assays:
unc5b_rat Unc5b = unc5b_rat Unc5b (UniProt O08722)
Sequence of unc5b_rat Unc5b (O08722 whole entry): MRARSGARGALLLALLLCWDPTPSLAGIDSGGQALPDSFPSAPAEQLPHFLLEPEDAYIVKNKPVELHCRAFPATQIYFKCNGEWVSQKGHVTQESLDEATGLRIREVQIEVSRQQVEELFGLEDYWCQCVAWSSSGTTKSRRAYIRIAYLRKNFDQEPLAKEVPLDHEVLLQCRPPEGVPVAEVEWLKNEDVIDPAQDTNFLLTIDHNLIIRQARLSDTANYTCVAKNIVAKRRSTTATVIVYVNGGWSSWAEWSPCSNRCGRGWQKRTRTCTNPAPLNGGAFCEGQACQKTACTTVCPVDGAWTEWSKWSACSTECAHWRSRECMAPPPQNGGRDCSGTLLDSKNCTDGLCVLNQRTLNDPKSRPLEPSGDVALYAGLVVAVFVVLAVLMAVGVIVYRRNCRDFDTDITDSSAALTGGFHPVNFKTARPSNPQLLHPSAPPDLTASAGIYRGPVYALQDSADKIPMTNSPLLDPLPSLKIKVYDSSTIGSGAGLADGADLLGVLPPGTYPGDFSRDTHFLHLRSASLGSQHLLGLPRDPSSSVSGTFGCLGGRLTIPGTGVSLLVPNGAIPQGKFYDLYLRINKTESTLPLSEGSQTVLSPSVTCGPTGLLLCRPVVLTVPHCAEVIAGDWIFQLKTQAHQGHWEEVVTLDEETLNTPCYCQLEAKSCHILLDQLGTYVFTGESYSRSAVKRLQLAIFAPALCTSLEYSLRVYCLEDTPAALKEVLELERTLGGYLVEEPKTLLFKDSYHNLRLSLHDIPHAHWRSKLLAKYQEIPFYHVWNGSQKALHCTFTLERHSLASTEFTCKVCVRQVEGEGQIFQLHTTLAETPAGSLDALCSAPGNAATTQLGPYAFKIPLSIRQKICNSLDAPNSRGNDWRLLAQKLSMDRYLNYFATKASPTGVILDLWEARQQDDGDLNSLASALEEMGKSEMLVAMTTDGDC

Sequence of Unc5b, Q8K1S3-1 (Q8K1S3 whole entry): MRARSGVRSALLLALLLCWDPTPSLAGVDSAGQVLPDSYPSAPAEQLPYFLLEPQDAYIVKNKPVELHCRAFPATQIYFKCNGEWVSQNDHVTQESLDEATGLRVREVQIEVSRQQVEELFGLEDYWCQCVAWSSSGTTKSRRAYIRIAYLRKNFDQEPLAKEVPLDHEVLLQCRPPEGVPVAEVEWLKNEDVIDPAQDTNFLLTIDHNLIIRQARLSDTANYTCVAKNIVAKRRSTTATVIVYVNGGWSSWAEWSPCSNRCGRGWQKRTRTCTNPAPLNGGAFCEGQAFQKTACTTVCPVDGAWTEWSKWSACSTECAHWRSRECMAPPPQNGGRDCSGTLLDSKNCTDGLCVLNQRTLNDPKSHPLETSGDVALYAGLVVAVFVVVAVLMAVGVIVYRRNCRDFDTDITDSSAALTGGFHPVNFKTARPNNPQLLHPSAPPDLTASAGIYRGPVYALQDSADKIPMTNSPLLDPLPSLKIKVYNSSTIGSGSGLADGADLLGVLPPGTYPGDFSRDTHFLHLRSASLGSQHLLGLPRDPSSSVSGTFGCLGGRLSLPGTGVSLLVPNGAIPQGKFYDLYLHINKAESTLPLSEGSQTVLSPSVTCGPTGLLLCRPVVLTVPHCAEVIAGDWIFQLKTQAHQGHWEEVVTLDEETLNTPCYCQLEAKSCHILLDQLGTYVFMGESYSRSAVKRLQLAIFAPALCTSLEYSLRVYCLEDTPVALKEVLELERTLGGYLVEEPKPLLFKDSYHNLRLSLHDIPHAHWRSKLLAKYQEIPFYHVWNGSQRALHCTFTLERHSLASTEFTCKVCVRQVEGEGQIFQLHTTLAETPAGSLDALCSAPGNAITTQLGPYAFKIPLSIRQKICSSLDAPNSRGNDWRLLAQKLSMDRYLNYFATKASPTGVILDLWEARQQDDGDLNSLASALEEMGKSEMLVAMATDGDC

| effect of a mutation on the interaction (unc5b_rat Unc5b) | effect of a mutation on the interaction (Unc5b, Q8K1S3-1) | Substance |
| --- | --- | --- |
| decreasing interaction strength | – | Netrin-1 (Homo sapiens) (from UniProt O95631) S360A |
| decreasing interaction strength | – | Netrin-1 (Homo sapiens) (from UniProt O95631) N353A |
| with no effect | – | Netrin-1 (Homo sapiens) (from UniProt O95631) R348W |
| – | decreasing interaction strength | Netrin-1 (Mus musculus) (from UniProt O09118) R351A;N353A |
| decreasing interaction strength | – | Netrin-1 (Homo sapiens) (from UniProt O95631) R348A;R349A;R351A |

Further lines, the substance ahead of its results:

| Substance | effect of a mutation on the interaction (unc5b_rat Unc5b) | effect of a mutation on the interaction (Unc5b, Q8K1S3-1) |
| --- | --- | --- |
| Netrin-1 (Homo sapiens) (from UniProt O95631) Y357F | with no effect | – |
| Netrin-1 (Homo sapiens) (from UniProt O95631) K358L | decreasing interaction strength | – |
| Netrin-1 (Mus musculus) (from UniProt O09118) R348A;R349A | – | disrupting interaction strength |
